The values below come from patent publication US20250152722A1, “DRUG CONJUGATE OF GLUCOCORTICOID” (SHANGHAI SHENGDI PHARMACEUTICAL CO., LTD., priority 2022, published 2025).

The term EC50 (read off the curve) denotes the concentration at which the effect is half-maximal. The low end stands for greater potency, the high end for weaker potency. What is called EC50 is the concentration at which the effect is half-maximal. High values mean lower potency in that assay, low ones higher potency in that assay. The term Kd denotes the concentration at which binding is half-saturated. The low end stands for higher affinity, the high end for lower affinity. As a reminder, the koff is the first-order rate constant of dissociation. High values mean fast dissociation, low ones slow dissociation. As usually defined, the kon is a measure of how fast the partners come together. Read a high kon as faster complex formation.

One data set concerns the target T1, human IL-4Rα protein (Homo sapiens, UniProt P24394).
T1 construct: purchased SinoBiological 10402-H08H-B
T1 sequence (P24394 26-232 limits assumed): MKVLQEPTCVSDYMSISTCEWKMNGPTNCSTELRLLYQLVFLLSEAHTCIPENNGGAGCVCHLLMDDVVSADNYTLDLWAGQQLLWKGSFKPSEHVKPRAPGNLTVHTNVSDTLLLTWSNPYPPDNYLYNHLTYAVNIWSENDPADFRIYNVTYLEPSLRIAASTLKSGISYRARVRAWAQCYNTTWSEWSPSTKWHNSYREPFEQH
The experiment in a line: SPR affinity for human IL-4Rα antigen protein (Biacore 8K). It counts as binding. To be noted: captured hIL-4Rα. As to the method:
An SA sensor chip (Cytiva) was placed in Biacore 8K (Cytiva), and Biotin-labeled human IL-4Rα protein (SinoBiological, CAT #10402-H08H-B) was captured on the SA sensor chip. HBS-EP+buffer solution (10 mM HEPES, 150 mM NaCl, 3 mM EDTA, 0.05% surfactant P20) was used as the mobile phase. Each test protein was serially diluted 2-fold with HBS-EP+buffer solution and then injected as an analyte. […] Analysis was performed using Biacore 8K evaluation software (Cytiva), and data on the affinities of the test proteins were obtained.
A general note: Surface plasmon resonance follows binding to a sensor surface in real time, without labels.

The nature of data set [1]: Pharmacokinetic testing on mouse model after intratracheal nebulization. The data set is classed as in vivo. The following applies: after ADC-2 100 μg i.t., mice. As to the method: C57BL6/J mice, 8 weeks old, male, Cyagen (Suzhou) Biosciences Co., Ltd.
Mice were given medication via intratracheal nebulization (i.t.). At different time points post-administration, 300-400 μL of blood was collected from a mandibular blood vessel, left to stand for 2 h, and then centrifuged at 7500 rpm and 4° C. for 10 min, and the serum was collected. Following the blood collection, the mice were anesthetized and immobilized, the neck muscles of the mice were bluntly isolated to expose the trachea, and an incision was horizontally made in the trachea. A lavage syringe needle was slowly inserted, the normal saline pre-loaded, pre-cooled at 4° C., was slowly injected into the lung tissue for lavage, and the bronchoalveolar lavage fluid (BALF) was collected. Lavage was performed 3 times, with 300 μL of normal saline used for each of the first two lavages and 400 μL for the third. The collected bronchoalveolar lavage fluid was centrifuged at 1000 rpm and 4° C. for 10 min, and the supernatant was collected. After the mice were euthanized, their thoracic cavities were opened, and the complete lung tissues were isolated and collected. The tissues were rinsed with PBS to remove blood stains on the surfaces, and the surface PBS was dried off with paper towels before weighing the lung tissues. […] The protein concentrations in the homogenates were measured (Pierce, 23227). […]

For data set [2], the target named is T2, human IL-4Rα expressed on cells (human, UniProt P24394 26-825).
T2 construct: whole, on cells; also called IL-4Rα on TF-1 cells; cells expressing human IL-4Rα
T2 sequence (looked up): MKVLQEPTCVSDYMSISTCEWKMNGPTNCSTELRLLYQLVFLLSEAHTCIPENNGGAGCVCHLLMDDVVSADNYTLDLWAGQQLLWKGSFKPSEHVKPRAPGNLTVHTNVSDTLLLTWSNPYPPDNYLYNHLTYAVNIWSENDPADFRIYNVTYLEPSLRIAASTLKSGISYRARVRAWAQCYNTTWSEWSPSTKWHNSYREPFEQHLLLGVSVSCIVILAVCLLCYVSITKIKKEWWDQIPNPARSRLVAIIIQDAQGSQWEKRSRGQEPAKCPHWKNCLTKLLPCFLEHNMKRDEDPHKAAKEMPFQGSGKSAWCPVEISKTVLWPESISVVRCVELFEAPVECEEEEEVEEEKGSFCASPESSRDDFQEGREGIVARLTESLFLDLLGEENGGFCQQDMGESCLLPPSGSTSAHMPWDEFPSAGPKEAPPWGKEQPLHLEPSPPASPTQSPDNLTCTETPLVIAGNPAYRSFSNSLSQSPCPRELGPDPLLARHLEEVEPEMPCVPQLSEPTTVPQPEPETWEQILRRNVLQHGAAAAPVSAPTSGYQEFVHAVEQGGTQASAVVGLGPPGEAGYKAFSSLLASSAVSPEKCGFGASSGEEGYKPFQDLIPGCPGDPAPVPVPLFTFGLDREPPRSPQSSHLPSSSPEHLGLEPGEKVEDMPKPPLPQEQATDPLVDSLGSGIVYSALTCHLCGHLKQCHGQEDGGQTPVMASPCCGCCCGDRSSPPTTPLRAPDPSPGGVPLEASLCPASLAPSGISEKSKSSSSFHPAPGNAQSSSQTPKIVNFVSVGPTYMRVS
The data set is described as follows: flow cytometry, whole-cell binding to Karpas 299 cells expressing IL-4Rα; FITC anti-human IgG (Fab-specific) secondary antibody. The method, then: (§1) TF-1 and Karpas299 cells in the logarithmic growth phase were harvested and counted, and the cell density was adjusted. The cells were inoculated onto a 96-well round-bottom plate at 1×10⁵ cells/well. […] After the antibodies were washed off with FACS buffer (PBS containing 2% FBS), a fluorescently labeled secondary antibody was added for staining. […] The cells were incubated with the secondary antibodies at 4° C. for 30 min, then washed with FACS buffer twice, and assayed on a flow cytometer (BD, FACS Celesta), and the results were analyzed using FlowJo (FlowJo, LLC) software.
In general terms: In flow cytometry, cells or beads pass a laser one at a time.

Data set [3] addresses T2, human IL-4Rα expressed on cells. The experiment in a line: cell-based or functional assay.
Data set [4] has the same target. The experiment in a line: flow cytometry on TF-1 cells, anti-hFab-FITC secondary antibody. The method, then: as §1
In data set [5] the target is T3, Biotin-labeled human IL-4Rα protein (SinoBiological, CAT #10402-H08H-B) (human, UniProt P24394 26-232, Biotin-labeled (sites not given)).
T3 construct: Bought reagent, captured on an SA sensor chip; also called hIL-4Rα; human IL-4Rα antigen protein
T3 sequence (looked up): T1 sequence (P24394 26-232 limits assumed)
The experiment in a line: SPR, Biacore 8K, biotinylated hIL-4Rα captured on SA chip, test protein as analyte. As to the method:
HBS-EP+buffer solution (10 mM HEPES, 150 mM NaCl, 3 mM EDTA, 0.05% surfactant P20) was used as the mobile phase. Each test protein was serially diluted 2-fold with HBS-EP+buffer solution and then injected as an analyte. The flow rate was set to 30 μL/min. […] Analysis was performed using Biacore 8K evaluation software (Cytiva), and data on the affinities of the test proteins were obtained.

For “AZD1402-TAG: protein sequence from SEQ ID NO: 1 in WO2020200960A1 with a His tag fused at the C-terminus (SEQ ID NO: 52)”, in the data set with human IL-4Rα protein, the Koff worked out at 0.000102 s⁻¹ and the Kon came to 4.77e+06 M⁻¹ s⁻¹.
`CCCC1O[C@@H]2C[C@H]3[C@@H]4CCC5=CC(=O)C=C[C@]5(C)[C@H]4[C@@H](O)C[C@]3(C)[C@]2(C(=O)CO)O1` (stereo partly drawn) [Free budesonide, budesonide]: the “exposure of budesonide in serum, BALF and lung tissue (in words)” value in data set [1] is “low in all these tissues”.

B1: antibody-drug conjugate ADC-2 (other)
heavy: EVQLVESGGGLVQPGGSLRLSCAASGFTFSDYGMHWVRQAPGKGLEWVAFISSGSSIIYYADIVKGRSTISRDNAKNTLYLQMNSLRAEDTAVYYCTRGNKRGFFDYWGQGTLVTVSSASTKGPSVFPLAPCSRSTSESTAALGCLVKDYFPEPVTVSWNSGALTSGVHTFPAVLQSSGLYSLSSVVTVPSSSLGTKTYTCNVDHKPSNTKVDKRV
light: EIVLTQSPATLSLSPGERATLSCRASSSVPYMYWYQQKPGQAPRLLIYLTSNLASGIPARFSGSGSGTDFTLTISSLEPEDFAVYYCQQWRAYPPMLTFGGGTKVEIKRTVAAPSVFIFPPSDEQLKSGTASVVCLLNNFYPREAKVQWKVDNALQSGNSQESVTEQDSKDSTYSLSSTLTLSKADYEKHKVYACEVTHQGLSSPVTKSFNRGEC
modifications: budesonide linker-drug (Compound 2) coupled after TCEP reduction of 25G7-Fab; positions and drug loading not given; budesonide linker-drug (Compound 2, maleimide-(PEG)4-CH2CH2C(O)-Gly-Gly-Phe-Gly-NHCH2-O-budesonide) coupled after TCEP reduction of 25G7-Fab; positions and drug loading not given
On to B1, for which the “EC50 (read off the curve)” value in data set [2] was roughly 0.3 nM. Besides, in data set [3], the “IC50 value (nM) for blocking of IL-4 signaling pathway (HEK-Blue IL-4/IL-13 STAT6-SEAP reporter cells, recombinant human IL-4)” value stood at 0.68 nM and the “IC50 value (nM) for blocking of IL-13 signaling pathway (HEK-Blue IL-4/IL-13 STAT6-SEAP reporter cells, recombinant human IL-13)” value came out at 10.6 nM.

B2: 25G7-Fab (Fab, V domains shown)
VH: EVQLVESGGGLVQPGGSLRLSCAASGFTFSDYGMHWVRQAPGKGLEWVAFISSGSSIIYYADIVKGRSTISRDNAKNTLYLQMNSLRAEDTAVYYCTRGNKRGFFDYWGQGTLVTVSS
VL: EIVLTQSPATLSLSPGERATLSCRASSSVPYMYWYQQKPGQAPRLLIYLTSNLASGIPARFSGSGSGTDFTLTISSLEPEDFAVYYCQQWRAYPPMLTFGGGTKVEIKR
notes: Heavy chain is VH-CH1 (hu25G7-24-IgG4 VH-CH1), light chain is hu25G7-A LC; also called naked antibody 25G7-Fab; antibody 25G7-Fab
For B2, the “EC50 (read off the curve)” value in data set [2] is roughly 0.2 nM. Besides, it took 0.243 nM to reach a half-maximal effect in data set [4] (EC50). In data set [5], the affinity, expressed as Kd, was 0.0439 nM; the koff came out at 0.000206 s⁻¹; the on-rate (kon) is 4.69e+06 M⁻¹ s⁻¹. In addition, in data set [3], the “IC50 value (nM) for blocking of IL-4 signaling pathway (HEK-Blue IL-4/IL-13 STAT6-SEAP reporter cells, recombinant human IL-4)” value was determined as 0.61 nM and the “IC50 value (nM) for blocking of IL-13 signaling pathway (HEK-Blue IL-4/IL-13 STAT6-SEAP reporter cells, recombinant human IL-13)” value is 14.6 nM.

B3: hu25G7 (antibody, human IgG4 S228P, kappa, V domains shown)
VH: B2 VH
VL: B2 VL
notes: Full-length humanized antibody
In the case of B3, the 50% effective concentration (EC50 (read off the curve)) in data set [2] was roughly 0.1 nM. In data set [4], this molecule returned an EC50 of 0.247 nM.
